Experimental data: the supplement of paper PMC10567573

B1: TRIM55 (parent)
chain: YLPTRGGTTMASGGRFRCPSCRHE
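Further: lentivirally expressed fusions sorted by FACS into six bins by GFP to DsRed ratio, PSI derived from sequencing read proportions per bin multiplied by bin number.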

Variants of: B1
Experiment: protein stability index of a GFP-peptide fusion (GPS, HEK-293T) (PSI 1-6); higher = more stable
Conditions: c terminus: a fixed tail appended
YLPTRGGTTMASGGHFRCPSCRHE [R15H] gave a protein stability index of 1.39.
YLPTRGGTTMASGGPFRCPSCRHE [R15P] showed a protein stability index of 1.49.
With YLPTRGGTTMASGGLFRCPSCRHE [R15L] the protein stability index was 1.81.
For YLPTRGGTTMASGGKFRCPSCRHE [R15K], the protein stability index was 2.05.
YLPTRGGTTMASGGSFRCPSCRHE [R15S] gave a protein stability index of 1.65.
YLPTRGGTTMASGGDFRCPSCRHE [R15D] showed a protein stability index of 2.78.
YLPTRGGTTMASGGCFRCPSCRHE [R15C] showed a protein stability index of 2.02.
In the case of YLPTRGGTTMASGGVFRCPSCRHE [R15V], the protein stability index is reported as 1.24.
YLPTRGGTTMAAGGRFRCPSCRHE [S12A] gave a protein stability index of 1.87.
In the case of YLPTRGGTTMADGGRFRCPSCRHE [S12D], the protein stability index is reported as 1.34.
Variant YLPTRGGTTMAIGGRFRCPSCRHE [S12I] has a protein stability index of 2.18.
YLPTRGGTTMATGGRFRCPSCRHE [S12T] showed a protein stability index of 1.49.
Work on YLPTRGGTTMAPGGRFRCPSCRHE [S12P] yielded a protein stability index of 2.32.
In the case of YLPTRGGTTMACGGRFRCPSCRHE [S12C], the protein stability index is reported as 1.41.
For YLPTRGGTTMAEGGRFRCPSCRHE [S12E], the protein stability index was 2.09.
YLPTRGGTTMAGGGRFRCPSCRHE [S12G] gave a protein stability index of 2.1.
For YLPTRGGTTMAYGGRFRCPSCRHE [S12Y], the protein stability index was 1.28.
In the case of YLPTRGGTTMAHGGRFRCPSCRHE [S12H], the protein stability index is reported as 2.29.
Variant YLPTRGGTTMAMGGRFRCPSCRHE [S12M] has a protein stability index of 1.76.
YLPTRGGTTMAVGGRFRCPSCRHE [S12V] gave a protein stability index of 2.42.
With YLPTRGGTTMASGGRFRTPSCRHE [C18T] the protein stability index was 3.74.
With YLPTRGGTTMASGGRFRMPSCRHE [C18M] the protein stability index was 2.4.
In the case of YLPTRGGTTMASGGRFRHPSCRHE [C18H], the protein stability index is reported as 2.94.
YLPTRGGTTMASGGRFRVPSCRHE [C18V] showed a protein stability index of 2.71.
With YLPTRGGTTMASGGRFRFPSCRHE [C18F] the protein stability index was 2.43.
YLPTRGGTTMASGGRFRNPSCRHE [C18N] showed a protein stability index of 3.15.
Work on YLPTRGGTTMASGGRFRGPSCRHE [C18G] yielded a protein stability index of 3.27.
With YLPTRGGTTMASGGRFRLPSCRHE [C18L] the protein stability index was 3.47.
YLPTRGGTTMASGGRFRSPSCRHE [C18S] gave a protein stability index of 3.61.
Work on YLPTRGGTTMASGGRFRPPSCRHE [C18P] yielded a protein stability index of 3.56.
With YLPTRGGTTMASGGRFRKPSCRHE [C18K] the protein stability index was 3.34.
For YLPTRGGTTMASGGRFRYPSCRHE [C18Y], the protein stability index was 2.44.
YLPTRGGTTMASGGRFRWPSCRHE [C18W] gave a protein stability index of 1.7.
Variant YLPTRGGTTMASGGRFREPSCRHE [C18E] has a protein stability index of 2.98.
In the case of YLPTRGGTTMASGGRFRCPSCRHK [E24K], the protein stability index is reported as 2.04.
With YLPTRGGTTMASGGRFRCPSCRHD [E24D] the protein stability index was 1.93.
In the case of YLPTRGGTTMASGGRFRCPSCRHI [E24I], the protein stability index is reported as 1.41.
Work on YLPTRGGTTMASGGRFRCPSCRHH [E24H] yielded a protein stability index of 1.47.
In the case of YLPTRGGTTMASGGRFRCPSCRHM [E24M], the protein stability index is reported as 1.6.
Work on YLPTRGGTTMASGGRFRCPSCRHG [E24G] yielded a protein stability index of 1.06.
With YLPTRGGTTMASGGRFRCPSCRHQ [E24Q] the protein stability index was 3.06.
With YLPTRGGTTMASGGRFRCPSCRHS [E24S] the protein stability index was 1.53.
For YLPTRGGTTMASGGRFRCPSCRHL [E24L], the protein stability index was 1.57.
In the case of YLPTRGGTTMASGGRFRCPSCRHC [E24C], the protein stability index is reported as 2.07.
Variant YLPTRGGTTMASGGRFRCPSCRHY [E24Y] has a protein stability index of 2.55.
Variant YLPTRGGTTMASGGRFRCPSCRHT [E24T] has a protein stability index of 1.78.
Variant YLPTRGGTTMASGGRFRCPSCRHP [E24P] has a protein stability index of 2.29.
Work on YLPTRGGTTMASGGRFRCPSCRHA [E24A] yielded a protein stability index of 1.59.
YLPTRGGTTMASGGRFRCPSCRHV [E24V] gave a protein stability index of 2.29.
Variant YLPTRGGTTMASGGRFRCPSCRKE [H23K] has a protein stability index of 3.39.
YLPTRGGTTMASGGRFRCPSCRSE [H23S] showed a protein stability index of 3.03.
In the case of YLPTRGGTTMASGGRFRCPSCRCE [H23C], the protein stability index is reported as 3.34.
In the case of YLPTRGGTTMASGGRFRCPSCRVE [H23V], the protein stability index is reported as 2.
YLPTRGGTTMASGGRFRCPSCRPE [H23P] gave a protein stability index of 3.14.
Work on YLPTRGGTTMASGGRFRCPSCRME [H23M] yielded a protein stability index of 1.52.
Work on YLPTRGGTTMASGGRFRCPSCFHE [R22F] yielded a protein stability index of 2.38.
YLPTRGGTTMASGGRFRCPSCDHE [R22D] gave a protein stability index of 2.9.
YLPTRGGTTMASGGRFRCPSCEHE [R22E] showed a protein stability index of 4.06.
Work on YLPTRGGTTMASGGRFRCPSCGHE [R22G] yielded a protein stability index of 2.79.
In the case of YLPTRGGTTMASGGRFRCPSCAHE [R22A], the protein stability index is reported as 2.59.
For YLPTRGGTTMASGGRFRCPSCCHE [R22C], the protein stability index was 1.97.
For YLPTRGGTTMASGGRFRCPSCPHE [R22P], the protein stability index was 3.78.
YLPTRGGTTMASGGRFRCPSCYHE [R22Y] showed a protein stability index of 2.07.
Work on YLPTRGGTTMASGGRFRCPSCWHE [R22W] yielded a protein stability index of 2.01.
YLPTRGGTTMASGGRFRCPSCVHE [R22V] showed a protein stability index of 2.25.
Variant YLPTRGGTTMASGGRFRCPSCKHE [R22K] has a protein stability index of 2.94.
YLPTRGGTTMASGGRFRCPSCIHE [R22I] gave a protein stability index of 2.4.
YLPTRGGTTMASGGRFRCPSCSHE [R22S] showed a protein stability index of 3.2.
In the case of YLPTRGGTTMASGGRFRCPSCHHE [R22H], the protein stability index is reported as 2.4.
Variant YLPTRGGTTMASGGRFRCPSCNHE [R22N] has a protein stability index of 2.4.
Work on YLPTRGGTTMASGGRFRCPSCQHE [R22Q] yielded a protein stability index of 2.12.
Work on YLPTRGGTTNASGGRFRCPSCRHE [M10N] yielded a protein stability index of 1.96.
Work on YLPTRGGTTKASGGRFRCPSCRHE [M10K] yielded a protein stability index of 1.11.
YLPTRGGTTQASGGRFRCPSCRHE [M10Q] showed a protein stability index of 2.03.
YLPTRGGTTYASGGRFRCPSCRHE [M10Y] gave a protein stability index of 1.89.
In the case of YLPTRGGTTWASGGRFRCPSCRHE [M10W], the protein stability index is reported as 2.58.
YLPTRGGTTPASGGRFRCPSCRHE [M10P] gave a protein stability index of 2.5.
In the case of YLPTRGGTTVASGGRFRCPSCRHE [M10V], the protein stability index is reported as 1.65.
YLPTRGGTTTASGGRFRCPSCRHE [M10T] gave a protein stability index of 4.08.
YLPTRGGTTIASGGRFRCPSCRHE [M10I] showed a protein stability index of 2.27.
Variant YLPTRGGTTMASFGRFRCPSCRHE [G13F] has a protein stability index of 2.39.
For YLPTRGGTTMASMGRFRCPSCRHE [G13M], the protein stability index was 1.96.
With YLPTRGGTTMASHGRFRCPSCRHE [G13H] the protein stability index was 2.62.
Variant YLPTRGGTTMASPGRFRCPSCRHE [G13P] has a protein stability index of 1.44.
With YLPTRGGTTMASKGRFRCPSCRHE [G13K] the protein stability index was 1.38.
Work on YLPTRGGTTMASRGRFRCPSCRHE [G13R] yielded a protein stability index of 1.
YLPTRGGTTMASWGRFRCPSCRHE [G13W] gave a protein stability index of 1.12.
YLPTRGGTTMASAGRFRCPSCRHE [G13A] showed a protein stability index of 2.47.
YLPTRGGTTMASNGRFRCPSCRHE [G13N] showed a protein stability index of 1.89.
With YLPTRGGTTMASIGRFRCPSCRHE [G13I] the protein stability index was 1.33.
Work on YLPTRGGTTMASTGRFRCPSCRHE [G13T] yielded a protein stability index of 1.88.
YLPTRGGTTMASQGRFRCPSCRHE [G13Q] gave a protein stability index of 1.51.
YLPTRGGTTMASDGRFRCPSCRHE [G13D] showed a protein stability index of 2.37.
With YLPTRGGTTMASEGRFRCPSCRHE [G13E] the protein stability index was 2.25.
